Data as given in patent US20240018501A1, “HIGHER PERFORMANCE PROTEASES FOR SCARLESS PEPTIDE TAG REMOVAL” (priority 2017, published 2024).

Columns and labels:
[1] = Storage and freeze-thaw stability of the proteases; assay type: physicochemical
LicP = LicP self-cleavage and intermolecular cleavage (SDS-PAGE, MALDI-TOF MS); assay type: biochemical, Bacillus licheniformis ATCC 14580
Protocol: Expression and purification of LicP and LicP mutant proteins. E. coli BL21 (DE3) cells were transformed with one of the following plasmids: pRSFDuet-1/LicP-25-433, pRSFDuet-1/LicP-25-433-S376A, pRSFDuet-1/LicP-25-433-H186A, pRSFDuet-1/LicP-25-433-E100A or pRSFDuet-1/LicP-25-433-E100A-E102A, and plated on an LB plate containing 50 mg/L kanamycin. A single colony was picked and grown in 20 mL of LB containing 50 mg/L kanamycin at 37° C. for 12 h and the resulting culture was inoculated into 2 L of LB containing 50 mg/L kanamycin. Cells were cultured at 37° C. until the OD at 600 nm reached 0.5, cooled and IPTG was added to a final concentration of 0.1 mM. The cells were cultured at 18° C. for another 10 h before harvesting. The cell pellet was resuspended on ice in LanP buffer (20 mM HEPES, 1 M NaCl, pH 7.5 at 25° C.) and lysed by homogenization. The lysed sample was centrifuged at 23,700×g for 30 min and the pellet was discarded. […] Protein concentration was quantified by the absorbance at 280 nm. The extinction coefficient for His6-LicP-25-433 was calculated as 46,300 M^−1 cm^−1. […]
Intermolecular cleavage of His6-LicP-25-433-S376A by His6-LicP-25-433. […] The three reactions were allowed to proceed at room temperature for 0, 2, 4, 7 and 19 h before being stopped by addition of SDS loading buffer and boiling at 95° C. for 10 min and analyzed by SDS-PAGE.

Chain of NisA-NDVNPE-I1G, P13068 (P13068 whole entry, looked up): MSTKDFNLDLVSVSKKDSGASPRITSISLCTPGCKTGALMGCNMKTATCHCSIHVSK
Chain of NisA-NDVNPE-I1K, P13068 (P13068 whole entry, looked up): as above
Chain of NisA-NDVNPE-I1W, P13068 (P13068 whole entry, looked up): as above
Chain of NisA-NDVNPE-I1L, P13068 (P13068 whole entry, looked up): as above
Chain of NisA-NDVNPE-I1C, P13068 (P13068 whole entry, looked up): as above
Chain of NisA-NDVNPE-I1F, P13068 (P13068 whole entry, looked up): as above
Chain of NisA-NDVNPE-I1T, P13068 (P13068 whole entry, looked up): as above
Chain of NisA-NDVNPE, P13068 (P13068 whole entry, looked up): as above
Chain of NisA-NDVNPE-I1E, P13068 (P13068 whole entry, looked up): as above

B1: His6-LicP-25-433 (protein)
chain: GSSHHHHHHSQDPKEQAGEQYLLLEHVKDKSKLLDTAEQFHIHADVIEEIGFAKVTGEKQKLAPFTKKLAEKVGADVIEKPIANTAVNETESVISGSPAWGLDGILELKEYLWFAAKQTDSYRTYQIERGHPDVKVALIDSGLDLDHPDLKASVNTNGGWNYIDGKPVSGDPTGHGTQTAGMINIIAPDVTITPYQVLDEKGGDSYNIMKAMVDAVNDGHEVINISTGSYTSLDREGKVLMKAYQRAANYAAKHQVLVFSSAGNKGVNLDEMRKTENKVHLPSALKHVVSVGSNMKSNNISPYSNQGREIEFTAPGGYLGETYDQDGMVRVTDLVLTTYPKGKDNTALDQMLNIPKGYSLSYGTSLAAPQVAGTAALVISEYRERHHRKPSAKQVHHILRKSALDLGKPGKDVIYGYGEVRAYQALKMMNKE
activity after multiple rounds of freeze-thaw [1]: no obvious decrease in activity
activity after storage ([1]; 12 weeks at 4° C): persistent activity
LicP self-cleavage during expression (LicP): a cleavage event occurred
Complete Reaction? (LicP cleavage; [LicP] 2 µM, [Substrate] 65 µM, 30 h at RT) (NisA-NDVNPE-I1K, P13068): N
removal of the NisA leader peptide by LicP, MALDI-TOF MS (NisA-NDVNPE-I1K, P13068): also accepted by LicP, although some substrate still remained after 30 hours of incubation
time-dependent cleavage by LicP, gel-based assay (100 µM peptide, 0.4 µM LicP) (LicA2-P-2A): alanine substitution at both sites did not alter the processing efficiency of LicP significantly
time-dependent cleavage by LicP, gel-based assay (100 µM peptide, 0.4 µM LicP) (LicA2-V-4A): still accepted by LicP with a slightly reduced cleavage efficiency
Complete Reaction? (LicP cleavage; [LicP] 0.2 µM, [Substrate] 65 µM, 20 h at RT) (NisA-NDVNPE-I1T, P13068): Y
removal of the NisA leader peptide by LicP, MALDI-TOF MS (NisA-NDVNPE-I1T, P13068): The highest proteolytic efficiency was obtained when the P1′ position was occupied by Thr or Cys
time-dependent cleavage by LicP, gel-based assay (100 µM peptide, 0.4 µM LicP) (LicA2-E-1Q): even substitution with structurally related amino acids Asp and Gln was not tolerated
Complete Reaction? (LicP cleavage; [LicP] 0.2 µM, [Substrate] 180 µM, 4 h at RT) (ProcA1.7-NDVNPE): Y
Complete Reaction? (LicP cleavage; [LicP] 2 µM, [Substrate] 65 µM, 30 h at RT) (NisA-NDVNPE-I1W, P13068): N
removal of the NisA leader peptide by LicP, MALDI-TOF MS (NisA-NDVNPE-I1W, P13068): also accepted by LicP, although some substrate still remained after 30 hours of incubation
Complete Reaction? (LicP cleavage; [LicP] 21 nM, [Substrate] 17 µM, 10 min at RT) (Modified LicA2): Y
rate of cleavage in a competitive MALDI-TOF MS assay (21 nM LicP, 17 µM each of modified LicA2 and linear G-LicA2) (Modified LicA2): complete consumption of modified LicA2 peptide within 10 min, corresponding to a rate of at least 80 min^-1
time-dependent cleavage by LicP, gel-based assay (100 µM peptide, 0.4 µM LicP) (LicA2-V-4L): still accepted by LicP with a slightly reduced cleavage efficiency
time-dependent cleavage by LicP, gel-based assay (100 µM peptide, 0.4 µM LicP) (LicA2-V-4F): LicA2-V-4F was no longer processed
intermolecular cleavage of the S376A mutant by wild type LicP, SDS-PAGE, 1:1, 0.1 mg/mL each (His6-LicP-25-433-S376A): autoprotolysis can take place intermolecularly, albeit slowly
Complete Reaction? (LicP cleavage; [LicP] 0.2 µM, [Substrate] 65 µM, 20 h at RT) (NisA-NDVNPE-I1C, P13068): Y
removal of the NisA leader peptide by LicP, MALDI-TOF MS (NisA-NDVNPE-I1C, P13068): The highest proteolytic efficiency was obtained when the P1′ position was occupied by Thr or Cys
time-dependent cleavage by LicP, gel-based assay (100 µM peptide, 0.4 µM LicP) (LicA2-D-5K): LicA2-D-5A and LicA2-D-5K are processed much more slowly
time-dependent cleavage by LicP, gel-based assay (100 µM peptide, 0.4 µM LicP) (LicA2-E-1D): even substitution with structurally related amino acids Asp and Gln was not tolerated
Complete Reaction? (LicP cleavage; [LicP] 1 µM, [Substrate] 290 µM, 6 h at RT) (Linear LicA2): Y
Complete Reaction? (LicP cleavage; [LicP] 2 µM, [Substrate] 65 µM, 30 h at RT) (NisA-NDVNPE-I1G, P13068): Y
removal of the NisA leader peptide by LicP, MALDI-TOF MS (NisA-NDVNPE-I1G, P13068): in front of a Gly or Ile residue was slightly less efficient, but complete consumption of precursor peptides was still observed
Complete Reaction? (LicP cleavage; [LicP] 2 µM, [Substrate] 65 µM, 30 h at RT) (NisA-NDVNPE, P13068): Y
removal of the NisA leader peptide by LicP, MALDI-TOF MS (NisA-NDVNPE, P13068): in front of a Gly or Ile residue was slightly less efficient, but complete consumption of precursor peptides was still observed
competitive MALDI-TOF MS assay (21 nM LicP, 17 µM each of modified LicA2 and linear G-LicA2) (linear G-LicA2): the cleavage of linear LicA2 only started after the modified LicA2 had been consumed and required more enzyme to be completed
Complete Reaction? (LicP cleavage; [LicP] 2 µM, [Substrate] 65 µM, 30 h at RT) (NisA-NDVNPE-I1E, P13068): N
removal of the NisA leader peptide by LicP, MALDI-TOF MS (NisA-NDVNPE-I1E, P13068): Peptides with Glu or Phe in the P1′ position turned out to be poor substrates
Complete Reaction? (LicP cleavage; [LicP] 2 µM, [Substrate] 65 µM, 30 h at RT) (NisA-NDVNPE-I1F, P13068): N
removal of the NisA leader peptide by LicP, MALDI-TOF MS (NisA-NDVNPE-I1F, P13068): Peptides with Glu or Phe in the P1′ position turned out to be poor substrates
Complete Reaction? (LicP cleavage; [LicP] 0.5 µM, [Substrate] 50 µM, 12 h at 4 C) (MBP-BamL): Y
removal of the MBP tag, SDS-PAGE time course, against TEV protease (MBP-BamL): LicP was capable of removing the MBP-tag in front of the BamL protein with similar efficiency as TEV
time-dependent cleavage by LicP, gel-based assay (100 µM peptide, 0.4 µM LicP) (LicA2-E-1A): LicA2-E-1A was not a substrate under the assay conditions
cleavage by LicP, MALDI-TOF MS (DVNPE-Licβ): the 5-residue oligopeptide was successfully removed
time-dependent cleavage by LicP, gel-based assay (100 µM peptide, 0.4 µM LicP) (LicA2-D-5A): LicA2-D-5A and LicA2-D-5K are processed much more slowly
Complete Reaction? (LicP cleavage; [LicP] 2 µM, [Substrate] 65 µM, 30 h at RT) (NisA-NDVNPE-I1L, P13068): N
removal of the NisA leader peptide by LicP, MALDI-TOF MS (NisA-NDVNPE-I1L, P13068): also accepted by LicP, although some substrate still remained after 30 hours of incubation
time-dependent cleavage by LicP, gel-based assay (100 µM peptide, 0.4 µM LicP) (LicA2-N-3A): alanine substitution at both sites did not alter the processing efficiency of LicP significantly
